Measured values reported in patent publication US20190085093A1 (SEOUL NATIONAL UNIVERSITY R AND DB FOUNDATION, published 2019).
Ends that are not written are not given here.

T1: FCHo1-C-3×DDK (full-length wild-type FCHo1 with C-terminally fused 3×FLAG tag) (human, UniProt O14526 1-889)
T1 construct: Expressed in A549 cells and pulled down with anti-FLAG gel; also called FCHo1-FLAG; wt FCHo1; not shown: C-terminal 3×DDK (3×FLAG) tag of the pCMV6-C-3×DDK vector
T1 sequence (looked up): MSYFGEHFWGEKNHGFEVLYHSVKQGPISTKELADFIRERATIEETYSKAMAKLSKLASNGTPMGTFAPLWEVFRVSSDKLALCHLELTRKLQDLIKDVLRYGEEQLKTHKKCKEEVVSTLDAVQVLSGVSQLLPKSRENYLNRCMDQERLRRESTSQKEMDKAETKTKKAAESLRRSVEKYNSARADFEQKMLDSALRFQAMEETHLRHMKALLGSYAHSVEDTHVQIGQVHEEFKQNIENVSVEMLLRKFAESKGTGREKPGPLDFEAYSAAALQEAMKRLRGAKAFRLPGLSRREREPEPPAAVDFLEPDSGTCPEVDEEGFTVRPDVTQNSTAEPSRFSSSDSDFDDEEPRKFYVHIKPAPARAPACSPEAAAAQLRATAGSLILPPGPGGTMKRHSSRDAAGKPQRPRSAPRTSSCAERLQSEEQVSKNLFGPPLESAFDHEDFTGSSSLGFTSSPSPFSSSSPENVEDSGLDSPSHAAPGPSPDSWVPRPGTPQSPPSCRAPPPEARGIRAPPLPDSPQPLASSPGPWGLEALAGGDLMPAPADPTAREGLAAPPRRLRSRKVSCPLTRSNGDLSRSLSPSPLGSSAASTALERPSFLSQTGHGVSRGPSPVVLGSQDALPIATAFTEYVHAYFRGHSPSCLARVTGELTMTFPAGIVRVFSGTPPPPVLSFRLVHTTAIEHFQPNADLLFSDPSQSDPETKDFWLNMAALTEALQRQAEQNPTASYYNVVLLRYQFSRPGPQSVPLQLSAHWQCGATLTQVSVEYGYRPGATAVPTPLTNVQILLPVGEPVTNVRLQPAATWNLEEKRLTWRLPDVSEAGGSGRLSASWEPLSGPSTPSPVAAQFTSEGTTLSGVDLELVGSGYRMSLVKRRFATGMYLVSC


Key:
[1] = target: T2, Akt1 (UniProt P31749 1-480); assay: biotin peptide on streptavidin plate, cell lysate, detection with Akt1 antibody
T2 construct: Endogenous protein detected with an Akt1 antibody (LF-MA0245); also called endogenous Akt1
Description: To confirm the binding affinity between Akt1 and Akt1 motif-containing FCHo1 amino acid sequence-derived peptides, biotin was conjugated to peptides to complete the synthetization. The peptides were reacted and attached to on the streptavidin-attached plate. After treating with the cell lysates, the binding affinity of the peptide and Akt1 was confirmed by the Akt1 antibody. The experiment process and its result of confirming in vitro binding affinity of Akt1 according to respective peptides derived from FCHo1 binding sites are illustrated in FIG. 28.

[2] = target: T2, Akt1; assay: immunofluorescence and PLA, A549 cells
Protocol: A549 cells were placed in 8-well chamber cover glasses or high-precision cover glasses and were fixed with 3% paraformaldehyde for 10 minutes at room temperature, permeabilized with 0.5% Triton® X-100 (Sigma-Aldrich) for 5 min, blocked for 30 minutes. Then, the cells were incubated with primary or secondary antibodies in blocking solution (PBS with 0.1% saponin and 3% BSA). Alexa Fluor 647 conjugated anti-rabbit secondary antibody and an oxygen scavenging system (0.5 mg/ml glucose oxidase, 40 μg/ml catalase, 10% glucose, pH 7.4) were used for stochastic optical reconstruction microscopy (dSTORM) imaging. Before imaging, 30 mM mercaptoethylamine ([…]; Sigma) was added to obtain a final thiol concentration of 10-200 mM. All dSTORM and SIM images were obtained from Carl Zeiss ELYRA PS.1 (super-resolution microscopy), and all CLSM images were obtained from the Carl Zeiss LSM710 (confocal laser scanning microscope).
Immunofluorescence and PLA assays confirmed whether the F-BAR domain binds to Akt1 at the ICB and plasma membrane and FCHo1 and Akt1 interact in the midbody. […] Interaction of FCHo1 and Akt1 in the midbody was confirmed by PLA, and Calmodulin 1 was used as an ICB marker. The results are illustrated in FIG. 17.

[3] = target: T1, FCHo1-C-3×DDK (full-length wild-type …); assay: co-immunoprecipitation with anti-FLAG antibody

T2 sequence (P31749 whole entry): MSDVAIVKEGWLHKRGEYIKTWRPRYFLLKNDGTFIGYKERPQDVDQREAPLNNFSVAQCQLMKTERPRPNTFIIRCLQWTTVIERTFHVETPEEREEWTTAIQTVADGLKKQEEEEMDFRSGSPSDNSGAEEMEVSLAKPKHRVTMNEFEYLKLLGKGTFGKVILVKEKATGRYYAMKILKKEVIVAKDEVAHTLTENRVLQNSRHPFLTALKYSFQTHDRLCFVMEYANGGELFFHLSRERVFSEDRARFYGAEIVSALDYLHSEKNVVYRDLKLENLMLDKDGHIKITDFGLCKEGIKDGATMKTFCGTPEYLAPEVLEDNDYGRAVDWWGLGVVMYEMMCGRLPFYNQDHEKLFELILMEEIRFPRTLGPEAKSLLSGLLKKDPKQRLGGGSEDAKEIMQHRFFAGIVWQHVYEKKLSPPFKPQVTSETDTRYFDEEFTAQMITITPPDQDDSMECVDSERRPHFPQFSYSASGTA

| binding result [1] | Binder | also measured |
| --- | --- | --- |
| binds | RRLRSRKVSC (also: biotin conjugated, position not given here, Attached to a streptavidin plate by its biotin) [peptide 562-571 of FCHo1 (RRLRSRKVSC), biotin-conjugated] |  |
|  | C-terminal (CT) fragment of FCHo1 cleaved at R563 (other, human, UniProt O14526 564-889, looked up, Fragment in cells, seen by immunofluorescence and PLA with the α584-804 antibody) LRSRKVSCPLTRSNGDLSRSLSPSPLGSSAASTALERPSFLSQTGHGVSRGPSPVVLGSQDALPIATAFTEYVHAYFRGHSPSCLARVTGELTMTFPAGIVRVFSGTPPPPVLSFRLVHTTAIEHFQPNADLLFSDPSQSDPETKDFWLNMAALTEALQRQAEQNPTASYYNVVLLRYQFSRPGPQSVPLQLSAHWQCGATLTQVSVEYGYRPGATAVPTPLTNVQILLPVGEPVTNVRLQPAATWNLEEKRLTWRLPDVSEAGGSGRLSASWEPLSGPSTPSPVAAQFTSEGTTLSGVDLELVGSGYRMSLVKRRFATGMYLVSC | binding result [2]: binds |
|  | CT-fragment (564-889aa) of FCHo1-HA (other, human, UniProt O14526 564-889, looked up, Cleavage product of FCHo1-HA in the cells, seen on the blot of the co-IP; not shown: C-terminal 3×HA tag) LRSRKVSCPLTRSNGDLSRSLSPSPLGSSAASTALERPSFLSQTGHGVSRGPSPVVLGSQDALPIATAFTEYVHAYFRGHSPSCLARVTGELTMTFPAGIVRVFSGTPPPPVLSFRLVHTTAIEHFQPNADLLFSDPSQSDPETKDFWLNMAALTEALQRQAEQNPTASYYNVVLLRYQFSRPGPQSVPLQLSAHWQCGATLTQVSVEYGYRPGATAVPTPLTNVQILLPVGEPVTNVRLQPAATWNLEEKRLTWRLPDVSEAGGSGRLSASWEPLSGPSTPSPVAAQFTSEGTTLSGVDLELVGSGYRMSLVKRRFATGMYLVSC | binding result [3]: no binding |
| binds | PPRRLRSRKVSC (also: biotin conjugated, position not given here, Attached to a streptavidin plate by its biotin) [peptide 560-571 of FCHo1 (PPRRLRSRKVSC), biotin-conjugated] |  |
